These results are taken from publication PMC7019167, “Development of a high affinity Anticalin® directed against human CD98hc for theranostic applications” (Theranostics, 2020).

Assay [1] concerns the target T1, glycosylated human CD98hc ectodomain (hCD98hcEDg), monobiotinylated (human, UniProt P08195-2 111-529, single biotin group on the biotin acceptor peptide (BirA co-expressed); N-glycosylated).
T1 construct: human CD98 heavy chain, extracellular domain, UniProt ID P08195-2, residues Glu111-Ala529; also called 4F2hc; SLC3A2; not shown: biotin acceptor peptide (BAP), N-terminal, kept
T1 sequence (looked up): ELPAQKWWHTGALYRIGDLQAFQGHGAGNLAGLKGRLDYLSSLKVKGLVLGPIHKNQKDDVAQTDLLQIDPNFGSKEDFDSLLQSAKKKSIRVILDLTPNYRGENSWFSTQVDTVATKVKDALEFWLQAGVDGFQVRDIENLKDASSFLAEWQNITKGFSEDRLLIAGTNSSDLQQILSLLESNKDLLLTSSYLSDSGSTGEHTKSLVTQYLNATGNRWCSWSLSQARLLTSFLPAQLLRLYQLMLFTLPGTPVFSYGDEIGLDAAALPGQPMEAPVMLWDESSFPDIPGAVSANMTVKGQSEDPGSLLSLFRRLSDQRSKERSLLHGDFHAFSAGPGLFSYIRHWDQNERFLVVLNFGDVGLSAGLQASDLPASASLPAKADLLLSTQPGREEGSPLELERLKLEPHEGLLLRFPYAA
Put plainly: SPR; biotinylated hCD98hcEDg immobilised (ΔRU ≈ 225) on a streptavidin-functionalized sensorchip (Biotin CAPture kit); BIAcore 2000, 25 °C, HBS-T (20 mM Hepes/NaOH pH 7.5, 150 mM NaCl, 0.005% Tween 20); single cycle kinetics, five injections of a 1:2 dilution series of the lipocalin variant; global 1:1 Langmuir fit; KD = koff/kon. The note with it: both partners purified. On the technique in general: Surface plasmon resonance follows binding to a sensor surface in real time, without labels.

Assay [2] concerns the target human CD98hc ectodomain, unglycosylated, biotinylated (hCD98hcED) (human) (UniProt P08195). The assay can be described thus: SPR; single cycle kinetics (five injections of a 1:2 dilution series, 3500 s dissociation); biotinylated hCD98hcED immobilised on a streptavidin sensorchip (Biotin CAPture kit), lipocalin variant as analyte; 25 °C, HBS-T; global 1:1 Langmuir fit.

B1: lipocalin variant (Anticalin) P3D11 (designed binder)
chain: QDSTSDLIPAPPLSKVPLQQNFQDNQFHGKWYVVGRAGNTGLREDKDPGKMFATIYELKEDKSYNVTYVWFGQKKCMYSIGTFVPGSQPGEFTLGNIKSAPGRTSWLVRVVSTNYNQHAMVFFKSVTQNREGFAITLYGRTKELTSELKENFIRFSKSLGLPENHIVFPVPIDQCIDG
notes: source: E. coli JM83, periplasmic extract, purified (IMAC, SEC)
In assay [1], B1 had a koff of 5e-05 s⁻¹ and a kon of 300000 M⁻¹ s⁻¹.

B2: Anticalin D11vs (P3D11 with Phe71Ser and Gly81Val) (designed binder)
chain: QDSTSDLIPAPPLSKVPLQQNFQDNQFHGKWYVVGRAGNTGLREDKDPGKMFATIYELKEDKSYNVTYVWSGQKKCMYSIVTFVPGSQPGEFTLGNIKSAPGRTSWLVRVVSTNYNQHAMVFFKSVTQNREGFAITLYGRTKELTSELKENFIRFSKSLGLPENHIVFPVPIDQCIDG
notes: source: E. coli, soluble protein at preparative scale, purified
In assay [2], B2 came in with a Kd of 0.06 nM, a koff of 2.6e-05 s⁻¹, a kon of 450000 M⁻¹ s⁻¹ and a τ1/2 (complex half-life) of 7.37 h. In assay [1], this molecule registered a Kd of 0.05 ± 0.003 nM, a koff of 2.2e-05 s⁻¹ and a kon of 460000 M⁻¹ s⁻¹.

B3: lipocalin variant (Anticalin) P1E4 (designed binder)
chain: QDSTSDLIPAPPLSKVPLQQNFQDNQFHGKWYVVGIAGNSMLREDKDPFKMTATIYELKEDKSYNVTRVRFDDKKCLYRILTFVPGSQPGEFTLGNIKSRPGWTSWLVRVVSTNYNQHAMVFFKRVHQNRETFWITLYGRTKELTSELKENFIRFSKSLGLPENHIVFPVPIDQCIDG
notes: as for B1
Regarding B3, in assay [1], the Kd was determined as 162 ± 20.9 nM, the koff is 0.09 s⁻¹ and the kon came out at 560000 M⁻¹ s⁻¹.

For orientation: koff means the rate constant with which the complex falls apart. A higher koff goes with a short-lived complex. As a reminder, the kon is the rate constant with which the complex forms. The low end stands for slower complex formation, the high end for faster complex formation. In general, Kd refers to a measure of binding affinity in units of concentration. Higher therefore signals a looser complex.
